Molecular target: Inducible counterpart receptor for VSTM5 on anti-CD3 activated human CD4+ T cells
Assay: FACS on anti-CD3 activated primary human CD4+ T cells, 100 ug/ml; background of the isotype control on the whole cells

gMFI: 0.335
Substance: Synagis (Palivizumab, anti-RSV humanized IgG1 mAb) (antibody)

— US20160347814A1
